Test [1] deals with RjoGlgAb (GT4 glycosyltransferase GlgAb from Rhodococcus jostii RHA1) (Rhodococcus jostii RHA1). Nature of the test: SEC.
For test [2], the target named is RjoGlgAc (GT4 glycosyltransferase GlgAc from Rhodococcus jostii RHA1) (Rhodococcus jostii RHA1). Nature of the test: SEC.

Turning to “RjoGlgAb (GT4 glycosyltransferase GlgAb from Rhodococcus jostii RHA1) (enzyme)”, in test [1], the stoichiometry N is greater than 15 subunits.

For “RjoGlgAc (GT4 glycosyltransferase GlgAc from Rhodococcus jostii RHA1) (enzyme)”, in test [2], the stoichiometry N is 2.

The values are drawn from doi:10.1101/2023.02.13.525685.
